These are literature values, as cited in patent US12258594B2, “Cas proteins with reduced immunogenicity and methods of screening thereof” (THE BROAD INSTITUTE, INC., priority 2018, dated 2025).

This data set has as its system target RNA. The conditions noted are these: for crRNA-guided target RNA cleavage activity: LbuCas13a alanine mutants.

B1: Lys718Ala: Lys718Ala mutant of LbuCas13a (protein, UniProt C7NBY4 1-1159, looked up, variant K718A)
CRISPR-associated …: MKVTKVGGISHKKYTSEGRLVKSESEENRTDERLSALLNMRLDMYIKNPSSTETKENQKRIGKLKKFFSNKMVYLKDNTLSLKNGKKENIDREYSETDILESDVRDKKNFAVLKKIYLNENVNSEELEVFRNDIKKKLNKINSLKYSFEKNKANYQKINENNIEKVEGKSKRNIIYDYYRESAKRDAYVSNVKEAFDKLYKEEDIAKLVLEIENLTKLEKYKIREFYHEIIGRKNDKENFAKIIYEEIQNVNNMKELIEKVPDMSELKKSQVFYKYYLDKEELNDKNIKYAFCHFVEIEMSQLLKNYVYKRLSNISNDKIKRIFEYQNLKKLIENKLLNKLDTYVRNCGKYNYYLQDGEIATSDFIARNRQNEAFLRNIIGVSSVAYFSLRNILETENENDITGRMRGKTVKNNKGEEKYVSGEVDKIYNENKKNEVKENLKMFYSYDFNMDNKNEIEDFFANIDEAISSIRHGIVHFNLELEGKDIFAFKNIAPSEISKKMFQNEINEKKLKLKIFRQLNSANVFRYLEKYKILNYLKRTRFEFVNKNIPFVPSFTKLYSRIDDLKNSLGIYWKTPKTNDDNKTKEIIDAQIYLLKNIYYGEFLNYFMSNNGNFFEISKEIIELNKNDKRNLKTGFYKLQKFEDIQEKIPKEYLANIQSLYMINAGNQDEEEKDTYIDFIQKIFLKGFMTYLANNGRLSLIYIGSDEETNTSLAEKAQEFDKFLKKYEQNNNIKIPYEINEFLREIKLGNILKYTERLNMFYLILKLLNHKELTNLKGSLEKYQSANKEEAFSDQLELINLLNLDNNRVTEDFELEADEIGKFLDFNGNKVKDNKELKKFDTNKIYFDGENIIKHRAFYNIKKYGMLNLLEKIADKAGYKISIEELKKYSNKKNEIEKNHKMQENLHRKYARPRKDEKFTDEDYESYKQAIENIEEYTHLKNKVEFNELNLLQGLLLRILHRLVGYTSIWERDLRFRLKGEFPENQYIEEIFNFENKKNVKYKGGQIVEKYIKFYKELHQNDEVKINKYSSANIKVLKQEKKDLYIRNYIAHFNYIPHAEISLLEVLENLRKLLSYDRKLKNAVMKSVVDILKEYGFVATFKIGADKKIGIQTLESEKIVHLKNLKKKKLMTDRNSEELCKLVKIMFEYKMEEKKSEN
As for B1, the “crRNA-guided target RNA cleavage activity” value is “reduced target RNA cleavage activity”.

B2: Gln519Ala: Gln519Ala mutant of LbuCas13a (protein, UniProt C7NBY4 1-1159, looked up, variant Q519A)
CRISPR-associated …: MKVTKVGGISHKKYTSEGRLVKSESEENRTDERLSALLNMRLDMYIKNPSSTETKENQKRIGKLKKFFSNKMVYLKDNTLSLKNGKKENIDREYSETDILESDVRDKKNFAVLKKIYLNENVNSEELEVFRNDIKKKLNKINSLKYSFEKNKANYQKINENNIEKVEGKSKRNIIYDYYRESAKRDAYVSNVKEAFDKLYKEEDIAKLVLEIENLTKLEKYKIREFYHEIIGRKNDKENFAKIIYEEIQNVNNMKELIEKVPDMSELKKSQVFYKYYLDKEELNDKNIKYAFCHFVEIEMSQLLKNYVYKRLSNISNDKIKRIFEYQNLKKLIENKLLNKLDTYVRNCGKYNYYLQDGEIATSDFIARNRQNEAFLRNIIGVSSVAYFSLRNILETENENDITGRMRGKTVKNNKGEEKYVSGEVDKIYNENKKNEVKENLKMFYSYDFNMDNKNEIEDFFANIDEAISSIRHGIVHFNLELEGKDIFAFKNIAPSEISKKMFQNEINEKKLKLKIFRALNSANVFRYLEKYKILNYLKRTRFEFVNKNIPFVPSFTKLYSRIDDLKNSLGIYWKTPKTNDDNKTKEIIDAQIYLLKNIYYGEFLNYFMSNNGNFFEISKEIIELNKNDKRNLKTGFYKLQKFEDIQEKIPKEYLANIQSLYMINAGNQDEEEKDTYIDFIQKIFLKGFMTYLANNGRLSLIYIGSDEETNTSLAEKKQEFDKFLKKYEQNNNIKIPYEINEFLREIKLGNILKYTERLNMFYLILKLLNHKELTNLKGSLEKYQSANKEEAFSDQLELINLLNLDNNRVTEDFELEADEIGKFLDFNGNKVKDNKELKKFDTNKIYFDGENIIKHRAFYNIKKYGMLNLLEKIADKAGYKISIEELKKYSNKKNEIEKNHKMQENLHRKYARPRKDEKFTDEDYESYKQAIENIEEYTHLKNKVEFNELNLLQGLLLRILHRLVGYTSIWERDLRFRLKGEFPENQYIEEIFNFENKKNVKYKGGQIVEKYIKFYKELHQNDEVKINKYSSANIKVLKQEKKDLYIRNYIAHFNYIPHAEISLLEVLENLRKLLSYDRKLKNAVMKSVVDILKEYGFVATFKIGADKKIGIQTLESEKIVHLKNLKKKKLMTDRNSEELCKLVKIMFEYKMEEKKSEN
Turning to B2, the “crRNA-guided target RNA cleavage activity” value is “reduced cleavage activities”.

B3: Lys845Ala: Lys845Ala mutant of LbuCas13a (protein, UniProt C7NBY4 1-1159, looked up, variant K845A)
CRISPR-associated …: MKVTKVGGISHKKYTSEGRLVKSESEENRTDERLSALLNMRLDMYIKNPSSTETKENQKRIGKLKKFFSNKMVYLKDNTLSLKNGKKENIDREYSETDILESDVRDKKNFAVLKKIYLNENVNSEELEVFRNDIKKKLNKINSLKYSFEKNKANYQKINENNIEKVEGKSKRNIIYDYYRESAKRDAYVSNVKEAFDKLYKEEDIAKLVLEIENLTKLEKYKIREFYHEIIGRKNDKENFAKIIYEEIQNVNNMKELIEKVPDMSELKKSQVFYKYYLDKEELNDKNIKYAFCHFVEIEMSQLLKNYVYKRLSNISNDKIKRIFEYQNLKKLIENKLLNKLDTYVRNCGKYNYYLQDGEIATSDFIARNRQNEAFLRNIIGVSSVAYFSLRNILETENENDITGRMRGKTVKNNKGEEKYVSGEVDKIYNENKKNEVKENLKMFYSYDFNMDNKNEIEDFFANIDEAISSIRHGIVHFNLELEGKDIFAFKNIAPSEISKKMFQNEINEKKLKLKIFRQLNSANVFRYLEKYKILNYLKRTRFEFVNKNIPFVPSFTKLYSRIDDLKNSLGIYWKTPKTNDDNKTKEIIDAQIYLLKNIYYGEFLNYFMSNNGNFFEISKEIIELNKNDKRNLKTGFYKLQKFEDIQEKIPKEYLANIQSLYMINAGNQDEEEKDTYIDFIQKIFLKGFMTYLANNGRLSLIYIGSDEETNTSLAEKKQEFDKFLKKYEQNNNIKIPYEINEFLREIKLGNILKYTERLNMFYLILKLLNHKELTNLKGSLEKYQSANKEEAFSDQLELINLLNLDNNRVTEDFELEADEIGKFLDFNGNKVKDNKELKKFDTNAIYFDGENIIKHRAFYNIKKYGMLNLLEKIADKAGYKISIEELKKYSNKKNEIEKNHKMQENLHRKYARPRKDEKFTDEDYESYKQAIENIEEYTHLKNKVEFNELNLLQGLLLRILHRLVGYTSIWERDLRFRLKGEFPENQYIEEIFNFENKKNVKYKGGQIVEKYIKFYKELHQNDEVKINKYSSANIKVLKQEKKDLYIRNYIAHFNYIPHAEISLLEVLENLRKLLSYDRKLKNAVMKSVVDILKEYGFVATFKIGADKKIGIQTLESEKIVHLKNLKKKKLMTDRNSEELCKLVKIMFEYKMEEKKSEN
With B3, the “crRNA-guided target RNA cleavage activity” value is “reduced target RNA cleavage activity”.

B4: Arg1135Ala: Arg1135Ala mutant of LbuCas13a (protein, UniProt C7NBY4 1-1159, looked up, variant R1135A)
CRISPR-associated …: MKVTKVGGISHKKYTSEGRLVKSESEENRTDERLSALLNMRLDMYIKNPSSTETKENQKRIGKLKKFFSNKMVYLKDNTLSLKNGKKENIDREYSETDILESDVRDKKNFAVLKKIYLNENVNSEELEVFRNDIKKKLNKINSLKYSFEKNKANYQKINENNIEKVEGKSKRNIIYDYYRESAKRDAYVSNVKEAFDKLYKEEDIAKLVLEIENLTKLEKYKIREFYHEIIGRKNDKENFAKIIYEEIQNVNNMKELIEKVPDMSELKKSQVFYKYYLDKEELNDKNIKYAFCHFVEIEMSQLLKNYVYKRLSNISNDKIKRIFEYQNLKKLIENKLLNKLDTYVRNCGKYNYYLQDGEIATSDFIARNRQNEAFLRNIIGVSSVAYFSLRNILETENENDITGRMRGKTVKNNKGEEKYVSGEVDKIYNENKKNEVKENLKMFYSYDFNMDNKNEIEDFFANIDEAISSIRHGIVHFNLELEGKDIFAFKNIAPSEISKKMFQNEINEKKLKLKIFRQLNSANVFRYLEKYKILNYLKRTRFEFVNKNIPFVPSFTKLYSRIDDLKNSLGIYWKTPKTNDDNKTKEIIDAQIYLLKNIYYGEFLNYFMSNNGNFFEISKEIIELNKNDKRNLKTGFYKLQKFEDIQEKIPKEYLANIQSLYMINAGNQDEEEKDTYIDFIQKIFLKGFMTYLANNGRLSLIYIGSDEETNTSLAEKKQEFDKFLKKYEQNNNIKIPYEINEFLREIKLGNILKYTERLNMFYLILKLLNHKELTNLKGSLEKYQSANKEEAFSDQLELINLLNLDNNRVTEDFELEADEIGKFLDFNGNKVKDNKELKKFDTNKIYFDGENIIKHRAFYNIKKYGMLNLLEKIADKAGYKISIEELKKYSNKKNEIEKNHKMQENLHRKYARPRKDEKFTDEDYESYKQAIENIEEYTHLKNKVEFNELNLLQGLLLRILHRLVGYTSIWERDLRFRLKGEFPENQYIEEIFNFENKKNVKYKGGQIVEKYIKFYKELHQNDEVKINKYSSANIKVLKQEKKDLYIRNYIAHFNYIPHAEISLLEVLENLRKLLSYDRKLKNAVMKSVVDILKEYGFVATFKIGADKKIGIQTLESEKIVHLKNLKKKKLMTDANSEELCKLVKIMFEYKMEEKKSEN
Turning to B4, the “crRNA-guided target RNA cleavage activity” value is “reduced cleavage activities”.

B5: His473: LbuCas13a with His473 substituted with alanine (protein, UniProt C7NBY4 1-1159, looked up, variant H473A)
CRISPR-associated …: MKVTKVGGISHKKYTSEGRLVKSESEENRTDERLSALLNMRLDMYIKNPSSTETKENQKRIGKLKKFFSNKMVYLKDNTLSLKNGKKENIDREYSETDILESDVRDKKNFAVLKKIYLNENVNSEELEVFRNDIKKKLNKINSLKYSFEKNKANYQKINENNIEKVEGKSKRNIIYDYYRESAKRDAYVSNVKEAFDKLYKEEDIAKLVLEIENLTKLEKYKIREFYHEIIGRKNDKENFAKIIYEEIQNVNNMKELIEKVPDMSELKKSQVFYKYYLDKEELNDKNIKYAFCHFVEIEMSQLLKNYVYKRLSNISNDKIKRIFEYQNLKKLIENKLLNKLDTYVRNCGKYNYYLQDGEIATSDFIARNRQNEAFLRNIIGVSSVAYFSLRNILETENENDITGRMRGKTVKNNKGEEKYVSGEVDKIYNENKKNEVKENLKMFYSYDFNMDNKNEIEDFFANIDEAISSIRAGIVHFNLELEGKDIFAFKNIAPSEISKKMFQNEINEKKLKLKIFRQLNSANVFRYLEKYKILNYLKRTRFEFVNKNIPFVPSFTKLYSRIDDLKNSLGIYWKTPKTNDDNKTKEIIDAQIYLLKNIYYGEFLNYFMSNNGNFFEISKEIIELNKNDKRNLKTGFYKLQKFEDIQEKIPKEYLANIQSLYMINAGNQDEEEKDTYIDFIQKIFLKGFMTYLANNGRLSLIYIGSDEETNTSLAEKKQEFDKFLKKYEQNNNIKIPYEINEFLREIKLGNILKYTERLNMFYLILKLLNHKELTNLKGSLEKYQSANKEEAFSDQLELINLLNLDNNRVTEDFELEADEIGKFLDFNGNKVKDNKELKKFDTNKIYFDGENIIKHRAFYNIKKYGMLNLLEKIADKAGYKISIEELKKYSNKKNEIEKNHKMQENLHRKYARPRKDEKFTDEDYESYKQAIENIEEYTHLKNKVEFNELNLLQGLLLRILHRLVGYTSIWERDLRFRLKGEFPENQYIEEIFNFENKKNVKYKGGQIVEKYIKFYKELHQNDEVKINKYSSANIKVLKQEKKDLYIRNYIAHFNYIPHAEISLLEVLENLRKLLSYDRKLKNAVMKSVVDILKEYGFVATFKIGADKKIGIQTLESEKIVHLKNLKKKKLMTDRNSEELCKLVKIMFEYKMEEKKSEN
Take B5: the “cleavage of target and non-target ssRNA substrate” value (LbuCas13a HEPN mutants) is “significantly reduced the cleavage of both target and non-target ssRNA substrate”.
